# Laboratory results as given in patent US20220162322A1.
# What was measured:
# [1] = target: BDCA-2 (CLEC4C, CD303) on human plasmacytoid dendritic cells (purified pDC or pDC within PBMC) (human) (UniProt Q8WTT0); assay: cell-based or functional assay
# [2] = target: human BDCA-2-Fc (hIgG1-Fc-hBDCA-2) (human); assay: ELISA on plate-coated human BDCA2-Fc
# [3] = target: human BDCA-2-Fc (hIgG1-Fc-hBDCA-2) (human); assay: SPR (BIAcore T200), huBDCA2-Fc immobilised on CM5 chip, mAb injected
# BDCA-2 (CLEC4C, CD303) on human plasmacytoid dendritic cells (purified pDC or pDC within PBMC) (human), sequence (Q8WTT0 whole entry): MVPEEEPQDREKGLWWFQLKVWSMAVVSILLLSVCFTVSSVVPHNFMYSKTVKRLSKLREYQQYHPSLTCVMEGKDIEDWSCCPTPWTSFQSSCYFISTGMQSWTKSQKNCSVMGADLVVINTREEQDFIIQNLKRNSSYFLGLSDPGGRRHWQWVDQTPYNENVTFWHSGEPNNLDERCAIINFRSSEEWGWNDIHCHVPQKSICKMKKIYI
# human BDCA-2-Fc (hIgG1-Fc-hBDCA-2) (human), sequence (chain, as listed by the source limits assumed): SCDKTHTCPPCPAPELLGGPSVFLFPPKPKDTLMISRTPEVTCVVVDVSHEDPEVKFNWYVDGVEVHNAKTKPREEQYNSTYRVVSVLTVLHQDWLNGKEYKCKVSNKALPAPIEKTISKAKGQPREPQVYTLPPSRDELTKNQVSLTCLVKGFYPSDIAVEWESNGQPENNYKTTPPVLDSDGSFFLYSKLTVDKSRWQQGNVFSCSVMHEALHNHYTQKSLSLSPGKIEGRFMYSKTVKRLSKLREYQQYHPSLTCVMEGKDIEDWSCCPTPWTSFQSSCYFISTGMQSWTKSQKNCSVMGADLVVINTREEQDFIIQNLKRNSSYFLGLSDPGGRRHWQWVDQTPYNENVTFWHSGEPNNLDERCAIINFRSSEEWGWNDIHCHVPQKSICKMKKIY
substance,measurement,setting,value
"anti-BDCA-2 mAb AC144 (Miltenyi Biotec, cat. no. 130-090-690) (antibody)","IC50, nM; inhibition of IFNα from ODN stimulated healthy donor PBMC",[1],1.52 nM
same,"IC50, ng/ml; inhibition of IFNα from ODN stimulated healthy donor PBMC",[1],228 ng/mL
same,"IC90, nM; inhibition of IFNα from ODN stimulated healthy donor PBMC",[1],13.7 nM
same,"IC90, ng/ml; inhibition of IFNα from ODN stimulated healthy donor PBMC",[1],2060 ng/mL
same,EC50,[2],0.27 nM
same,Kd,[3],2.3 nM
